One block for each molecule: values may come before it. No end group written: not given here.
Assays:
GST-TR2 = target: T1, GST-TR2 (Homo sapiens, UniProt P13056); assay: GST-TR2 pull-down assay; format: binding; details: for Interaction with GST-TR2 fusion protein: 35S methionine-labeled proteins, Example 4; for Interaction with GST-TR2 in pull-down assay / Direct interaction with GST-TR2 fusion protein: in vitro translated [35S]-labeled proteins; for Interaction with GST-TR2 in pull-down assay: Example 1; for Direct interaction with GST-TR2 fusion protein: Example 2
T1 construct: pGEX-3x-TR2 were constructed by inserting full-length TR2 fragments to individual vectors; made in house; host or cells: E. coli BL21(DE3) pLysS
T1 sequence (P13056 1-603): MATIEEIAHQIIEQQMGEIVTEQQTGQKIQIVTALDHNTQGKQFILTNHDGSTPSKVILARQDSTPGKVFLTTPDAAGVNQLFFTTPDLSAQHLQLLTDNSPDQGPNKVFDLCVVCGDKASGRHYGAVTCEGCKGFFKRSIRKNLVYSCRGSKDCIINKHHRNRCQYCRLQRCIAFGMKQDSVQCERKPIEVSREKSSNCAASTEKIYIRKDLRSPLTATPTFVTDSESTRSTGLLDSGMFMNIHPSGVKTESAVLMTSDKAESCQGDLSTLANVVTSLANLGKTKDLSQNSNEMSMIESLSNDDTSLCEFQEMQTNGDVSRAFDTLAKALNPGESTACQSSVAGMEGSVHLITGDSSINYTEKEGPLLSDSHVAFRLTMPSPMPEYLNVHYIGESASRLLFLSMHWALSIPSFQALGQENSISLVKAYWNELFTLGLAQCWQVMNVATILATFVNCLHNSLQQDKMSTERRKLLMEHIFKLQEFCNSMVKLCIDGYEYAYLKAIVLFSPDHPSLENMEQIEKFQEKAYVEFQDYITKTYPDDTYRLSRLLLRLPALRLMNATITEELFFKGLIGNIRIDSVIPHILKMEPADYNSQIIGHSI
Protocol: Fusion proteins of GST-TR2, GST-ER segments and GST were obtained by transforming expressing plasmids into BL21(DE3) pLysS competent bacteria followed with 2-hour IPTG induction. GST-proteins were then purified by mixing Glutathione-Sepharose™ 4B (Pharmacia) into bacteria lysates on a rotating disk at 4° C. for 40 mm followed by washing with 1 mL NENT buffer (20 mM Tris-HCL (pH 8.0), 100 mM NaCl, 1 mM EDTA, 6 mM MgCl2, 1 mM Dithiothretiol, 8% Glycerol, 1 mM PMSF and 0.5% (v/v) NP-40). The ER, AR, RXRA., and TR2 proteins labeled with [35S] were generated in vitro by using the TNT reticulocyte lysate system (Promega). For the in vitro interaction, the glutathione-Sepharose bound GST-proteins were resuspended with 100 μl of interaction buffer (20 mM HEPES pH 7.9, 150 mM KCl, 5 mM MgCl2. 0.5 mM EDTA, 0.5 mM Dithiothretiol, 0.1% (v/v) NP-40, 0.1% (w/v) BSA and 1 mM PMSF) and mixed with 5 μl of […] at 4° C. for 3 h. After extensive washes with NENT buffer, the bound proteins were separated on an SDS/8% PAGE and visualized by using autoradiography.
GST alone and GST fusion proteins were purified by Glutathione-Sepharose 4B beads as instructed by manufacturer (Amersham Pharmacia). The pull-down assay was performed with 5 μl of in vitro-translated [^35S]-labeled proteins as described previously (Yeh, S. et al. (2000) Proc. Natl. Acad. Sci. USA 97, 11256-61).
GST control protein and GST-TR2 fusion protein were purified by glutathione-sepharose 4B beads as described by manufacture (Amersham. Biosciences). Five microliters of in vitro-translated 35S-methionine-labeled proteins was used to perform the Pull-down assay as described previously [4F].

ER homodimer = target: T2, ER homodimer (Homo sapiens, UniProt P03372); assay: ER homodimer formation, competition GST pull-down (GST-ER-LBD with [35S]-ER); details: for ER homodimer formation (GST-ER-LBD with [35S]-ER): Example 2, FIG. 16B
T2 sequence (P03372 312-595): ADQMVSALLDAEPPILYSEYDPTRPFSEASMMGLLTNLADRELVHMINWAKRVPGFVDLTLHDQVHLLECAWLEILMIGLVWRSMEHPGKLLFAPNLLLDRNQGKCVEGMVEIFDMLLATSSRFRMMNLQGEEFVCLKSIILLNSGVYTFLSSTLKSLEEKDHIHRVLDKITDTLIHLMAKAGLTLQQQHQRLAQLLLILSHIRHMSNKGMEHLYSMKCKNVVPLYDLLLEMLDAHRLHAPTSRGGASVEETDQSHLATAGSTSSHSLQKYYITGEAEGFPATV

Molecule: AR: androgen receptor, SEQ ID NO:31
Interaction with GST-TR2 fusion protein (GST-TR2): able to interact
Interaction with GST-TR2 in pull-down assay (GST-TR2): can interact well
Direct interaction with GST-TR2 fusion protein (GST-TR2): directly interact

Interaction of GST-TR2 with [35S]-labeled ER (GST-TR2; increasing amounts of HA-ER-#6 peptide, absence of E2): inhibited
ER homodimer formation (GST-ER-LBD with [35S]-ER) (ER homodimer): rescued
Molecule: ER-#6: interaction blocker, ER fragment aa 312-340, as HA-tagged peptide, expression plasmid or cleaved peptide (ADQMVSALLDAEPPILYSEYDPTRPFSEA; also: HA tag (position not given here); UniProt P03372 312-340, looked up, fragment)

Interaction with GST-TR2 fusion protein (GST-TR2): not able to interact
Interaction with GST-TR2 in pull-down assay (GST-TR2): not
Direct interaction with GST-TR2 fusion protein (GST-TR2): not
Molecule: RXR: retinoid X receptor, another member of the steroid receptor superfamily

B1: TR2: human testicular orphan nuclear receptor 2, 603 amino acids (protein, UniProt P13056 1-603, looked up)
chain: T1 sequence (P13056 1-603)
modifications: full-length
notes: human testicular orphan nuclear receptor 2, 603 amino acids
ER homodimer formation (GST-ER-LBD with [35S]-ER) (ER homodimer): interrupted

ER-ER homodimerization (GST-ER-LBD with [35S] ER) (ER homodimer; increasing amounts of TR4, Example 3): inhibit
B2: TR4: human testicular orphan nuclear receptor 4, SEQ ID NO:16; expressed from plasmid or in vitro translated (protein)
chain: MTSPSPRIQIISTDSAVASPQRIQGSEPASGPLSVFTSLNKEKIVTDQQTGQKIQIVTAVDASGSPKQQFILTSPDGAGTGKVILASPETSSAKQLIFTTSDNLVPGRIQIVTDSASVERLLGKTDVQRPQVVEYCVVCGDKASGRHYGAVSCEGCKGFFKRSVRKNLTYSCRSSQDCIINKHHRNRCQFCRLKKCLEMGMKMESVQSERKPFDVQREKPSNCAASTEKIYIRKDLRSPLIATPTFVADKDGARQTGLLDPGMLVNIQQPLIREDGTVLLATDSKAETSQGALGTLANVVTSLANLSESLNNGDTSEIQPEDQSASEITRAFDTLAKALNTTDSSSSPSLADGIDTSGGGSIHVISRDQSTPIIEVEGPLLSDTHVTFKLTMPSPMPEYLNVHYICESASRLLFLSMHRARSIPAFQGLGQDCNTSLVRACWNELFTLGLAQCAQVMSLSTILAAIVNHLQNSIQEDKLSGDRIKQVMEHIWKLQEFCNSMANWDIDGYEYAYLKAIVLFSPDHPGLTSTSQIEKFQEKAQMELQDYVQKTYSEDTYRLARILVRLPALRLMSSNITEELFFTGLIGNVSIDSIIPYILKMETAEYNGQITGVSL

Source: patent publication US20030235860A1, “Interactions between AR, ER, TR2, and TR4” (priority 1999, published 2003)
